The results in this text go back to PMC10709618, “Ag nanorod@PEI-Ag nanohybrid as an excellent signal label for sensitive and rapid detection of serum HER2”.

The target of this data set is HER2 (GST-tagged, human) (human, UniProt P04626 676-1255). The data set is described as follows: electrochemical aptasensor (cyclic voltammetry); Ag NR@PEI-Ag nanohybrid label cast after HER2; LOD 10 pg (not a Kd); Aptamer 0.25 uM loaded on Au electrode; HER2 cast and dried under infrared lamp, PBS wash; CV in 0.1 M PBS pH 7, 100 mV/s; temperature not stated. Particulars: protein: commercial; tags: GST.

B1: HER2 aptamer (ssDNA)
DNA: GGGCCGTCGAACACGAGCATGGTGCGTGGACCTAGGATGACCTGAGTACTGTCC
modifications: 5'-thiol (SH)
On to B1, for which the binding result is given as “binds”.
